Assay: Esterase activity assay, monomethyl heptanedioate to heptanedioic acid, LC-MS
Assay type: biochemical
Settings: esterase assays
Method: A nucleotide sequence encoding a C-terminal His-tag may be added to the gene from Bacillus subtilis encoding the esterase of SEQ ID NO: 50 (NCBI Reference Sequence: NP_388108.1) such that a C-terminal HIS tagged esterase is produced. The resulting modified gene is cloned into a pET28b+ expression vector under control of the T7 promoter and the expression vector is transformed into a BL21[DE3] E. coli host. The resulting recombinant E. coli strain can be cultivated at 37° C. in a 500 mL shake flask culture containing 100 mL LB media and antibiotic selection pressure, with shaking at 230 rpm. Each culture is induced overnight at 18° C. using 0.3 mM IPTG.
The pellet from each induced shake flask culture can be harvested via centrifugation. Each pellet is resuspended and lysed via sonication. The cell debris is separated from the supernatant via centrifugation. The esterase can be purified from the supernatant using Ni-affinity chromatography, buffer exchanged and concentrated into 20 mM HEPES buffer (pH=7.5) via ultrafiltration and stored at 4° C.
Enzyme activity assays converting monomethyl heptanedioate to heptanedioic acid are performed in triplicate in a buffer composed of a final concentration of 25 mM Tris-HCl buffer (pH=7.0) and 5 [mM] monomethyl heptanedioic acid. […] The formation of heptanedioic acid can be quantified via LC-MS.

B1: esterase from Streptomyces diastatochromogenes: estA from Streptomyces diastatochromogenes classified under EC 3.1.1.1 (protein)
chain: MARFRTRLALLGSAAALAAGAVVPAQLAGAQPAAAAADLQWVALGDSYTAGVIRAAGDAIDYPRDGCERTDRSYPQVIERDLYGLFDLTNVSCGAATIENVSDTPQYPIGRHMPPFSEDPDHPFPPVPPQSEAVGPGTDVITVGVGGNTLGFADILTKCQELGGESGGEGTPCKGALGSGIKARLDKVSQGYDRMLTVLHERGPKAKILTVGYPTVIPENTADCGYGDLTKFGTITQGDLAWLRQDVLEPLNKTIEDSAATQEAADFVNLYAPSQGHSVCDADKWVEGILTVSPNQDPQLSFVHPNASGHRNAADHVEEAMLNAIS
modifications: Streptomyces diastatochromogenes
Q: With B1 as the molecule, how does the “methyl ester hydrolysis of a C7 compound” value read?
A: affected the methyl ester hydrolysis of a C7 compound
